Reference: patent US20210115124A1 (Genentech, published 2021)

Target: T1, human VEGF (hVEGF) (human, UniProt P15692 181-395)
T1 construct: also called VEGF-A
T1 sequence: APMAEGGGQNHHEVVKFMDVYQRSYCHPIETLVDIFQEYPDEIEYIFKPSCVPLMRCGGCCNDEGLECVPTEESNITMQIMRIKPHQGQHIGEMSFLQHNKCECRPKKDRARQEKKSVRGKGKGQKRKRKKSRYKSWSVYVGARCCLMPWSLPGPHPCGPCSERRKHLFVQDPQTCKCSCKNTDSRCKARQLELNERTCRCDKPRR
Experiment: SPR (FIG. 10D)

B1: G6.31 LC-F83V (Fab, V domains shown)
VH: EVQLVESGGGLVQPGGSLRLSCAASGFTISDYWIHWVRQAPGKGLEWVAGITPAGGYTYYADSVKGRFTISADTSKNTAYLQMNSLRAEDTAVYYCARFVFFLPYAMDYWGQGTLVTVSS
VL: DIQMTQSPSSLSASVGDRVTITCRASQDVSTAVAWYQQKPGKAPKLLIYSASFLYSGVPSRFSGSGSGTDFTLTISSLQPEDVATYYCQQGYGNPFTFGQGTKVEIK
notes: Fab
- fold increase in affinity: 3 fold
